Source: the RNAGym collection of RNA variant scans (doi:10.1073/pnas.2313332121)

B1: TPR t1 (parent)
chain: GACCAAUCUGCCCUCAGAGCUCGAGAACAUCUUCGGAUGCAGAGGAGGCAGGCUUCGGUGGCGCGAUAGCGCCAACGUCCUCAACCUCCAAUGCAUCCCACCACAUGAUGAUGCCUGAAGAGCCUUGGUUUUUUG

Variants of: B1
Experiment: polymerase ribozyme fitness, log enrichment relative to wild type (log ratio); higher = more active; in vitro selection for triplet polymerase activity
Procedure, shortened: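 PCR was used to build mutant libraries for each subunit of a heterodimeric triplet polymerase ribozyme, which were then transcribed. A single in vitro selection round, in triplicate, used a frozen incubation at −7 °C and recovered extended constructs by gel excision, streptavidin beads and RT-PCR. Fitness is the logarithm of genotype enrichment relative to wild-type enrichment, averaged over replicates with inverse-variance weights. The logarithm is base 2, and after Illumina sequencing only genotypes with ≥10 input reads and ≥1 read per output were kept.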

Row | Variant | polymerase ribozyme fitness (log ratio)
1 | G60A G61U U96G | -2.55
2 | G60A G93U U112C G113U | -5.49
3 | C62U C73U | -0.0195
4 | G61U C88U | -0.259
5 | G60U G77C C89U U132A | -0.345
6 | G60C U87A C101U G117A U132A | -1.89
7 | G61C A84U G93C G128A | -5.12
8 | C62U A74C C89A C104A U112C | -2.59
9 | G63A | -0.907
10 | C62A A74C | -2.68
11 | G60A U78C | -0.393
12 | G61A G113C | -1.78
13 | G60A G69U A95U U126A | -2.8
14 | C62U C80G | -6.35
15 | C62U A118G | 0.164
16 | G60U C89U U92A A118U | -2.14
17 | C62U U109A G117U A119C | -7.11
18 | C62U C76U | -0.133
19 | G61A U112C G127C | 0.55
20 | G61A G93U | -0.737
21 | C62U G69C C102G U130G | -7.34

Row | Variant | polymerase ribozyme fitness (log ratio)
22 | G60A G61A C88A G120C A121U | -2.51
23 | G61A A74U G110U A118G | -4.67
24 | G60A U81A | -1.44
25 | C62A A90C U112A | -2.63
26 | C62U A84C G117C C124A | -2.09
27 | G61A U78C C86A A95C | -1.85
28 | G61C U106C G135U | -3.18
29 | G60U C79U G93A C102A | -2.44
30 | G61U U87A | -0.452
31 | G61A G93A C97A G120U U133C | -6.04
32 | C62U A68G C99U U133G | -6.26
33 | C62U C114G A121C G135A | -1.63
34 | G61A G127U | -1.35
35 | G61A G127A | -2.37
36 | G61U C114G | -1.85
37 | C62A A75U A111C | -1.81
38 | G60C C104U U126A | -1.46
39 | G63A A91G U129A | -3.01
40 | G61C C89U | -1.58
41 | G60C C85A | -0.933
42 | G61U G120A | 0.595

Row | Variant | polymerase ribozyme fitness (log ratio)
43 | G61U C86A C115U | -1.4
44 | G61U G107A U112C G122A | -5.04
45 | G61C C114G | -4.27
46 | G60U C114A | -1.45
47 | C62U C124G | 1.52
48 | G61U C70U | -2.03
49 | G61A G77A A91G | -2.58
50 | G61U C89G | -1.53
51 | G61A C88U U131G | -0.555
52 | G60A U78G A84U G93A C102A | -4.94
53 | C62U C104U A108C | -6
54 | G60C G113C | -2.72
55 | C62A U125G | -1.43
56 | G60A U106A | -0.15
57 | G60A U106G | -0.897
58 | C62U U132A | -0.469
59 | C62U U132C | -0.257
60 | C62A U131A G135A | -2.64
61 | G60C C123U | 0.343
62 | G61C A111G U116G C124A U131G | -3.87
63 | G61C G63C G117C U126A G135U | -4.51

Row | Variant | polymerase ribozyme fitness (log ratio)
64 | G60A G69U C72U C86G A118U U129A | -5.04
65 | G61A G113C G135A | -2.34
66 | G61U C102G G120C | -6.46
67 | G61C C97A C124G | -5.48
68 | G60A G135C | 0.136
69 | G60C G63A | -5.52
70 | G61C U116C | -2.77
71 | G61A U78G G107A C114U G117A | -6.96
72 | G61U U96C | 0.151
73 | C62G G93A | -1.76
74 | C62G G93U | -2.74
75 | G63A A121C G135A | 0.83
76 | C62U G113A | -0.93
77 | G61U C104U U116A | -2.46
78 | G61C G120C | -1.04
79 | G63A A74U A95U | -3.67
80 | G61A G63A | -4.85
81 | G63A A90C | -2.84
82 | G61A A111G | 0.971
83 | G61A U78C A95C C123A | 0.138
84 | G63A A75G G122A G127U | -3.17
